“And” between values parts separate entries of the source, which are not always exact repeats. Equal values may be shown once. Read-outs that look alike come from different tables or passages of the source.
Key:
[1] = tested on: LST-1; settings: Y479A mutation; cited from earlier work
[2] = Melting temperature of FBF-2 proteins; type: physicochemical
Experimental: Mutants of FBF-2 RBD + CT: Y479A (5′-[…]), L610A (5′-[…]), and Loop6A (E592A, D594A, E597A, E599A, E604A, E605A; 5′-[…]) were generated by site-directed mutagenesis with the primers indicated. Plasmid sequences were verified by DNA sequencing (Azenta Life Sciences). Protein variants were expressed and purified like wild type proteins. Melting temperatures of wild type and mutant proteins were assessed by differential scanning […]. Reaction mixtures (total volume of 20 μl) contained ~0.3 mg/ml FBF-2 proteins and Sypro Orange dye (1:1000 dilution) (Sigma). Fluorescent intensity was collected from 25 °C to 95 °C (3 °C increment/min) with a real time PCR instrument (Applied Biosystems™ QuantStudio 7 Flex System) using excitation and emission wavelengths of 470 nm and 586 nm, respectively. Protein Thermal Shift^TM software (Applied Biosystems, version 1.4) was used to analyze protein melting curves and calculate melting temperatures (Tm).

[3] = molecular target: gld-1 FBEa RNA; experiment: Electrophoretic mobility shift assay (EMSA), RNA binding; design: species or system C. elegans
Experimental: A 3′-Cy5-labeled synthetic RNA was ordered from IDT (gld-1 FBEa, 5′-[…]-3′). The FBF-2 proteins were serially diluted 2-fold from the highest concentration of 10 µM in the buffer used for gel filtration (20 mM HEPES pH 7.4, 150 mM NaCl, and 0.5 mM TCEP). 10 µl of the serially diluted protein samples were mixed with 10 µl RNA (10 nM) in a 2× buffer of 10 mM HEPES pH 7.4, 0.01% (v/v) Tween 20, 0.1 mg/ml BSA, 0.1 mg/ml yeast tRNA, and 2 mM DTT. For experiments in the presence of LST-1, LST-1 proteins at constant concentration were preincubated with FBF-2 at 4 °C for 2 h. The LST-1 concentrations were chosen based on their Kd’s for interaction with FBF-2. The final FBF-2 concentrations ranged from 5000 nM to 0.6 nM, and the LST-1 A or B concentrations were constant at 150 μM or 50 μM, respectively. The protein-RNA mixtures were incubated at 4 °C overnight. The samples were resolved on 10% TBE polyacrylamide gels run at constant voltage (100 V) with 1× TBE buffer at room temperature for 35 min. The gels were scanned and visualized with a Typhoon FLA 9500 imager using the Cy5 channel (excitation wavelength 635 nm). Band intensities were quantified with ImageQuant 5.2 (Cytiva). The data were fit with GraphPad Prism (version 9.2.0) using nonlinear regression with a one-site specific binding model. Mean Kd’s and standard error of the mean (SEM) from three or more technical replicates are reported (Supplementary Table 4). Full scan images for the replicates shown in the main figures and gel images for all replicates are included in a source data file.

[4] = molecular target: gld-1 FBEa RNA; experiment: Surface plasmon resonance, RNA-binding kinetics; design: species or system C. elegans
Experimental: Kinetics of FBF-2 binding to the gld-1 FBEa RNA were measured using a 2-channel OpenSPR instrument (Nicoya). A 3′-biotin-labeled synthetic RNA was ordered from Horizon Discovery (gld-1 FBEa, 5′-AUCAUGUGCCAUACA-biotin-3′). The 3′-biotinylated RNA was immobilized on streptavidin-treated biotin sensor chips (Nicoya). All experiments were performed at 20 °C with a buffer of 20 mM HEPES, pH 7.4, 150 mM NaCl, and 2 mM DTT. SPR data were collected using OpenSPR (Nicoya, version 4.3). FBF-2 proteins were injected with a flow rate of 20 µl/min. Data were obtained at five different protein concentrations (25, 50, 100, 200, and 400 nM for wild type RBD + CT; 12.5, 25, 50, 100, and 200 nM for RBD + CT mutants and wild type RBD). Sensor chips were regenerated using 0.05% or 0.1% (v/v) SDS. For each experiment, five binding curves were simultaneously fit using a 1:1 binding model with the TraceDrawer software (Ridgeview Instruments, version 1.9.1). Mean values and standard deviation were calculated from two technical replicates. Despite our efforts, the fit of the binding curves for the association phase of FBF-2 RBD and FBF-2 RBD + CT mutants is poorer than the fit for FBF-2 RBD + CT WT. The appearance of the curves is consistent with the derived kon and koff values, and importantly, the curve fit for the dissociation phase is better.

[5] = mean ± SD, two technical replicates, 20 °C, pH 7.4, 1:1 model

B1: FBF-2 RBD + CT Y479A: FBF-2 RBD + CT mutated in the R7-R8 loop (Y479A) (protein, UniProt Q09312 164-632, looked up, variant Y479A)
chain: SNNVLPTWSLDSNGEMRSRLSLSEVLDSGDLMKFAVDKTGCQFLEKAVKGSLTSYQKFQLFEQVIGRKDDFLKLSTNIFGNYLVQSVIGISLATNDDGYTKRQEKLKNFISSQMTDMCLDKFACRVIQSSLQNMDLSLACKLVQALPRDARLIAICVDQNANHVIQKVVAVIPLKNWEFIVDFVATPEHLRQICSDKYGCRVVQTIIEKLTADSMNVDLTSAAQNLRERALQRLMTSVTNRCQELATNEYANYIIQHIVSNDDLAVYRECIIEKCLMRNLLSLSQEKFASHVVEKAFLHAPLELLAEMMDEIFDGAIPHPDTGKDALDIMMFHQFGNYVVQCMLTICCDAVSGRRQTKEGGYDHAISFQDWLKKLHSRVTKERHRLSRFSSGKKMIETLANLRSTHPIYELQSSGHDSFKTDYFSTASEHDGPELEKNGIEEGSLMLEPRSNKSSVSVKFSSSGSHGDD
interaction with LST-1 [1]: disrupts interaction between FBF-2 and LST-1
thermal stability ([2]; in words, vs RBD alone or vs RBD + CT): decreased the thermal stability
Tm ([2]; mean ± SD, three technical replicates, ~0.3 mg/ml protein, Sypro Orange, 25 to 95 °C, fluorescence): 35.25 ± 0.05 °C
Tm ([2]; replicate 1): 35.30 °C
Tm ([2]; replicate 2): 35.30 °C
Tm ([2]; replicate 3): 35.16 °C
Kd [3]: 36 nM and 39 nM and 47 nM
Kd ([3]; no LST-1, mean ± SEM of independent technical replicates (n = 3-5), 4 °C overnight, pH 7.4, Cy5-RNA 5′-AUCAUGUGCCAUAC-3′): 62 nM
Kd ([3]; no LST-1, replicate 1): 75 nM
Kd ([3]; no LST-1, replicate 2): 64 nM
Kd ([3]; no LST-1, replicate 3): 48 nM
Kd ([3]; pH 7.4): 41 ± 6 nM
Kd ([4]; derived from on/off rates, mean ± SD, two technical replicates): 12.9 ± 6.4 nM
koff [4, 5]: 1.18 ± 0.11 x10^-3 s^-1
kon [4, 5]: 10.2 ± 4.3 x10^4 M^-1 s^-1
Kd ([4]; replicate 1): 17.4 nM
kon ([4]; replicate 1): 71900 M⁻¹ s⁻¹
koff ([4]; replicate 1, read-out: koff): 0.00125 s⁻¹
Kd ([4]; replicate 2): 8.3 nM
kon ([4]; replicate 2): 133000 M⁻¹ s⁻¹
koff ([4]; replicate 2, read-out: koff): 0.0011 s⁻¹
